In article PMC6978305, “Formation of S. pombe Erh1 homodimer mediates gametogenic gene silencing and meiosis progression” (Scientific Reports, 2020):

Biological target: the molecule itself
Assay: SEC-MALS; SEC-MALLS of purified recombinant proteins in solution

B1: S. pombe Erh1, wild type, recombinant (natural protein, UniProt G2TRN4 1-104, looked up)
chain: MSPPPAESHIILLIQQGSDPKTRIWSDHCSLRSAIEYIVGVYQTNQAVSEKESIDVSRFFNFFDEIYDCVPLVYDRHFRAYIPHEKQWLLHHAQEYLTAARQIP
notes: Erh1, S. pombe, full length, from plasmid pMG921 (pGEX-6P1); After 3C cleavage some residues of the N-terminal tag remain (4 of them are seen in protomer B of the crystal structure); also called wild-type Erh1; apo-Erh1; source: E. coli BL21 (DE3) Codon+, purified (GSH-sepharose, 3C cleavage, Superdex 75); not shown: GST, N-terminal, cleaved
stoichiometry N: 2
